Measured values taken from article PMC3480970 (Molecular microbiology, 2012).

Columns and labels:
[1] = target: CheC (Thermotoga maritima) (UniProt Q9X006); test: ITC; settings: cited from earlier work
GST-CheD (B. subtilis) = GST-CheD (B. subtilis) (UniProt P40404); test: pull-down
[2] = target: T1, 6xHis-McpC cytoplasmic fragment (wild type, unmodified) (B. subtilis, UniProt P54576 298-655); test: pull-down
T1 sequence (looked up): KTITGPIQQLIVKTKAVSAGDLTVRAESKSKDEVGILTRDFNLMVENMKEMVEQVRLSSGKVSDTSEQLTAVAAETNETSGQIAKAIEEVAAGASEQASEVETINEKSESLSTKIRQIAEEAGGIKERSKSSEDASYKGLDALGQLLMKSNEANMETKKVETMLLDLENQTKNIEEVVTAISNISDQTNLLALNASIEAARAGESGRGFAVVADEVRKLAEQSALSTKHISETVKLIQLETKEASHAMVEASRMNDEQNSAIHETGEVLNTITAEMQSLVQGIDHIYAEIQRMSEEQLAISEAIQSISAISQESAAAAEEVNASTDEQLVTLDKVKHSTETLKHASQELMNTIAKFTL

CheC (Thermotoga maritima), sequence (Q9X006 whole entry): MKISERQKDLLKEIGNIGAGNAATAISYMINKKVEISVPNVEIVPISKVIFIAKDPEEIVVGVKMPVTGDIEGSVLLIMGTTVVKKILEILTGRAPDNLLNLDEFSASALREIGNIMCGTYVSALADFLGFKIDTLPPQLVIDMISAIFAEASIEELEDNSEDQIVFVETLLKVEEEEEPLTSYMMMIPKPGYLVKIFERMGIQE

CheD (from UniProt Q9X005)
Kd [1]: 1 µM

Deamidated (Q609E) McpC cytoplasmic chemoreceptor fragment (from UniProt P54576 1-655) (domain or fragment)
Kd (GST-CheD (B. subtilis)): 117 µM
percent of chemoreceptor bound (GST-CheD (B. subtilis)): 13.2%

B1: GST-CheD (enzyme, B. subtilis, UniProt P40404 1-166, looked up)
chain: MSTTEAVVIKVGIADVKIARFPDTIRTSGLGSCVGLVLYDKEKQTAGLVHVMLPDSTLSKTAELNRAKYADTAVQTTIDMLIEAGCRKFALKAKLAGGSEMFKFKSTNDLMKIGPRNVLAIKEQLSLFNIPIISEDTGGSSGRTIEFEPKSCMLHIRTVKQGEKTI
Kd [2]: 202 µM
